Source: paper PMC5574827, “Improvement of the pharmacological activity of menthol via enzymatic β-anomer-selective glycosylation” (AMB Express, 2017)

Substrate: CC(C)[C@@H]1CC[C@@H](C)C[C@H]1O
Test: LC-MS/MS (MRM) of menthol glucoside, Lineweaver-Burk
Type: biochemical, Bacillus licheniformis
Details: UDP-glucose as sugar donor (2 mM in the general protocol), 1 mM MgCl2, 50 mM Tris-HCl pH 8.0, 30 °C, 10 min

B1: BLC (Bacillus licheniformis DSM 13 = ATCC 14580) (protein)
chain: MGHKHIAIFNIPAHGHINPTLALTASLVKRGYRVTYPVTDEFVKAVEETGAEPLNYRSTLNIDPQQIRELMKNKKDMSQAPLMFIKEMEEVLPQLEALYENDKPDLILFDFMAMAGKLLAEKFGIEAVRLCSTYAQNEHFTFRSISEEFKIELTPEQEDALKNSNLPSFNFEDMFEPAKLNIVFMPRAFQPYGETFDERFSFVGPSLAKRKFQEKETPIISDSGRPVMLISLGTAFNAWPEFYHMCIEAFRDTKWQVIMAVGTTIDPESFDDIPENFSIHQRVPQLEILKKAELFITHGGMNSTMEGLNAGVPLVAVPQMPEQEITARRVEELGLGKHLQPEDTTAASLREAVSQTDGDPHVLKRIQDMQKHIKQAGGAEKAADEIEAFLAPAGVK
notes: His-tagged, pET28a (BamHI/XhoI), expressed in E. coli BL21(DE3), Ni-NTA purified; cloned as in Wu et al. 2012
  Km: 1740 ± 600 µM
  kcat: 1.58 ± 0.0388 s⁻¹
